Results reported in paper PMC12088426, “Activity and structure of human (d)CTP deaminase CDADC1” (Proceedings of the National Academy of Sciences of the …, 2025).
Positions count from the first letter of the chain named. In names and notes the source's numbering stands. Several values for one entry are separate records, joined by “and”; a condition that tells them apart may be missing. Equal entries are not always repeated. One block for each molecule: values may come before it.

How the values were obtained:
CDADC1 (NYD-SP15) = molecular target: T1, CDADC1 (NYD-SP15) (Homo sapiens, UniProt Q9BWV3, E400A); experiment: cryo-EM structure of complex; format: binding; conditions: hexamer, catalytically inactive variant
T1 construct: codon-optimized gene, E. coli BL21-CodonPlus(DE3)-RIL; homotrimer / hexamer (dimer of trimers), hexamer is the active form
T1 sequence (Q9BWV3 1-514 E400A): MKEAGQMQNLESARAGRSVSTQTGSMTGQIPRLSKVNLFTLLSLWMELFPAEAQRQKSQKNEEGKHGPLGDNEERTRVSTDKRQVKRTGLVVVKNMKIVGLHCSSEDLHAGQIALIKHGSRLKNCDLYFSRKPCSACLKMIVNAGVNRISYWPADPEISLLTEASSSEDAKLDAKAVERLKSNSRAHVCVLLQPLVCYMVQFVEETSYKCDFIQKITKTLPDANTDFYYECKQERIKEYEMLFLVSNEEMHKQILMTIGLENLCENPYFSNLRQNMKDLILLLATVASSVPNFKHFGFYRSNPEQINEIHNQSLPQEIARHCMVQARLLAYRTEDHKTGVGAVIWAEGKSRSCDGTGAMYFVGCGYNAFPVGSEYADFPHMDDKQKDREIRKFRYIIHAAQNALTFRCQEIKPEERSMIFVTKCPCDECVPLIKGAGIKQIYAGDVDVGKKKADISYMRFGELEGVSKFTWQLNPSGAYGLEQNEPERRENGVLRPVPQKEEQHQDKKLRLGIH

[1] = substrate: Nc1ccn([C@@H]2O[C@H](COP(=O)(O)OP(=O)(O)OP(=O)(O)O)[C@@H](O)[C@H]2O)c(=O)n1; experiment: fluorescent ammonia detection, initial velocities, allosteric sigmoidal fit; format: biochemical, Homo sapiens; conditions: Low Salt Reaction Buffer; 0.3 uM CDADC1 (monomer); Hill coefficient 1.6
[2] = substrate: Nc1ccn([C@H]2C[C@H](O)[C@@H](COP(=O)(O)OP(=O)(O)OP(=O)(O)O)O2)c(=O)n1; experiment: as above; format: biochemical, Homo sapiens; conditions: Low Salt Reaction Buffer; 0.2 uM CDADC1 (monomer); Hill coefficient 1.22
[3] = substrate: Nc1ccn([C@H]2C[C@H](O)[C@@H](COP(=O)(O)O)O2)c(=O)n1; experiment: as above; format: biochemical, Homo sapiens; conditions: Low Salt Reaction Buffer; 0.3 uM CDADC1 (monomer); Hill coefficient 1.8
[4] = molecular target: the molecule itself; experiment: cryo-EM structure; single-particle cryo-EM of CDADC1 E400A alone, with dCTP and with 5-methyl-dCTP; C3 (trimer) or D3 (dimer of trimers) symmetry imposed; maps 2.4 to 3.0 A
[5] = molecular target: the molecule itself; experiment: mass photometry; Refeyn TwoMP; CDADC1 at ~0.06 uM (monomer), room temperature, 10 min, without a ligand or with 1 mM dCTP (dCTP stabilised against dissociation); hexamers dissociated to trimers and monomers over time; hexamer = dimer of trimers

cryo-EM structure of complex (CDADC1 (NYD-SP15); one dCTP per protomer in CTD active site, N4 coordinates Zn2+): a hexamer with bound dCTP (PDB: 9HFS)
Molecule: Nc1ccn([C@H]2C[C@H](O)[C@@H](COP(=O)(O)OP(=O)(O)OP(=O)(O)O)O2)c(=O)n1 [dCTP]

cryo-EM structure of complex (CDADC1 (NYD-SP15); CTD active site, less clear map than dCTP): a hexamer with bound 5mdCTP (PDB: 9HFT)
Molecule: Cc1cn([C@H]2C[C@H](O)[C@@H](COP(=O)(O)OP(=O)(O)OP(=O)(O)O)O2)c(=O)nc1N [5mdCTP]

B1: CDADC1 (NYD-SP15) (Homo sapiens) (protein)
chain: T1 sequence (Q9BWV3 1-514 E400A) with A400E
notes: codon-optimized gene, E. coli BL21-CodonPlus(DE3)-RIL; homotrimer / hexamer (dimer of trimers), hexamer is the active form
K0.5 [1]: 0.7 mM | kcat [1]: 5.0 s⁻¹ | K0.5 [2]: 0.2 mM | kcat [2]: 3.5 s⁻¹ | K0.5 [3]: 5 mM | kcat [3]: 8.5 s⁻¹

B2: human CDADC1 E400A variant (enzyme, UniProt Q9BWV3 1-514, looked up)
chain: T1 sequence (Q9BWV3 1-514 E400A)
notes: CDADC1 (NYD-SP15), human, 514 residues, catalytic glutamate E400 changed to alanine; expressed from a codon-optimized gene; This variant was used for all cryo-EM datasets; source: E. coli BL21-CodonPlus (DE3)-RIL, purified (His-trap, Heparin HP, Superdex 200 Increase)
stoichiometry N [4]: 3 and 6

B3: human CDADC1 (enzyme, UniProt Q9BWV3 1-514, looked up)
chain: T1 sequence (Q9BWV3 1-514 E400A) with A400E
notes: CDADC1 (NYD-SP15), human, 514 residues, expressed from a codon-optimized gene; Complete methods are in the SI Appendix; also called NYD-SP15; source: E. coli BL21-CodonPlus (DE3)-RIL, purified (His-trap, Heparin HP, Superdex 200 Increase)
stoichiometry N [5]: 3 and 6
